# Changes are numbered by the printed parent chain. Several values for one entry are separate records, joined by “and”; a condition that tells them apart may be missing. Identical values can stand only once.
# T1: human NPRA (human, UniProt P16066 33-1061)
# T1 sequence (looked up): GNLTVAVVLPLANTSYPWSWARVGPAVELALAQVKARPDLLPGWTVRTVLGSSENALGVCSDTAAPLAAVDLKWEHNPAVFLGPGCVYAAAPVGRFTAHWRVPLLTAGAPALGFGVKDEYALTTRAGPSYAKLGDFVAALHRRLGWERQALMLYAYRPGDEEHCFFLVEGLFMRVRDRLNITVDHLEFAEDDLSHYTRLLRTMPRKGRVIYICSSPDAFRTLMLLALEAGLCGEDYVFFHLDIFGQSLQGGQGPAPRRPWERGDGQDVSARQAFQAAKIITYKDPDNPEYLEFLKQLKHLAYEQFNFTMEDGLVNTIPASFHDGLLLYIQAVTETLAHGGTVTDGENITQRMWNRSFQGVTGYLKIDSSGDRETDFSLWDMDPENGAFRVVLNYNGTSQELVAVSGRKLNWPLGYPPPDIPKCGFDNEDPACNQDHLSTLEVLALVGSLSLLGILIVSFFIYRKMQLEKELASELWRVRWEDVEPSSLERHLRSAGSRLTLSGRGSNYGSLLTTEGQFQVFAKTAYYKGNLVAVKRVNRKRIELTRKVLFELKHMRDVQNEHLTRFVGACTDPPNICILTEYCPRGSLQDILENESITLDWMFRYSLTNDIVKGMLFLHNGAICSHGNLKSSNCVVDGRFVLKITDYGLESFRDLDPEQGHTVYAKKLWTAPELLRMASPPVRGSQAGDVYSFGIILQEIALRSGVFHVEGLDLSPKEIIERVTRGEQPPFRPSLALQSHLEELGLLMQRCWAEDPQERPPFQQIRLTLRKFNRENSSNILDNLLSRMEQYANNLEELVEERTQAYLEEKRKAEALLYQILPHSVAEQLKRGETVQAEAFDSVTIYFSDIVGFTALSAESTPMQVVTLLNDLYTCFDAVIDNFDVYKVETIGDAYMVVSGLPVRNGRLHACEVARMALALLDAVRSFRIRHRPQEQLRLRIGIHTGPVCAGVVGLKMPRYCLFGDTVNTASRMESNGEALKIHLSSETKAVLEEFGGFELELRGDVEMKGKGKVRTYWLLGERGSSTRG
# T2: rat ANP receptor (NPR-A) (rat, UniProt P18910 29-1057)
# T2 sequence (looked up): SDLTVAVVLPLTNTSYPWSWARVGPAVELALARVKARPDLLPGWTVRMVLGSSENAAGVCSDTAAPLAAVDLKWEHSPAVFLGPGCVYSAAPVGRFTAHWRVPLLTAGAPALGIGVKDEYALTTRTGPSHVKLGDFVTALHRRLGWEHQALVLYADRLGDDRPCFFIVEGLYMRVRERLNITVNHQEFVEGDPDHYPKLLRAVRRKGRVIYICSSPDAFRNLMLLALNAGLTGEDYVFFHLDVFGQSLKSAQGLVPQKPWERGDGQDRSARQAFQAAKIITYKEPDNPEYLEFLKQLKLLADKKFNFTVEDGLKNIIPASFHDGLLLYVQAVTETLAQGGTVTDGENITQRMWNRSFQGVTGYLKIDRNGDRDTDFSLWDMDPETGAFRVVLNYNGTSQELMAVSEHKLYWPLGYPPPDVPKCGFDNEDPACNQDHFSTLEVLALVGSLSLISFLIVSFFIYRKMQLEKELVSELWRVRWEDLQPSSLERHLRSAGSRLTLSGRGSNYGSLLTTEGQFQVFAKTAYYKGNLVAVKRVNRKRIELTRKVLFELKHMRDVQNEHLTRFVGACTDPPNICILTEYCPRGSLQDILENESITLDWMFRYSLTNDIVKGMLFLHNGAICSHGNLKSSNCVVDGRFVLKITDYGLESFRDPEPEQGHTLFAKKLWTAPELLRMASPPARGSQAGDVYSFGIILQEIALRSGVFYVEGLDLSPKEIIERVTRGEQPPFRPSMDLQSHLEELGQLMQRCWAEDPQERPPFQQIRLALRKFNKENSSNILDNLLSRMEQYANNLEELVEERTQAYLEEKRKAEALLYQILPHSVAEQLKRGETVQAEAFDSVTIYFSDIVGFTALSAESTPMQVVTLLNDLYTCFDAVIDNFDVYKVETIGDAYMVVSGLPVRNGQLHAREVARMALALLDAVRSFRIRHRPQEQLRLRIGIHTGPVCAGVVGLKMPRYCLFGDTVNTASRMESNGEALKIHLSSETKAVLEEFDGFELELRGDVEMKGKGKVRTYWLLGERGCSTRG
# T3: human NPRA (human, UniProt P16066 33-1061)
# T3 sequence (looked up): T1 sequence (looked up)
# T4: rat CNP receptor (NPR-B) (rat, UniProt P16067 17-1047)
# T4 sequence (looked up): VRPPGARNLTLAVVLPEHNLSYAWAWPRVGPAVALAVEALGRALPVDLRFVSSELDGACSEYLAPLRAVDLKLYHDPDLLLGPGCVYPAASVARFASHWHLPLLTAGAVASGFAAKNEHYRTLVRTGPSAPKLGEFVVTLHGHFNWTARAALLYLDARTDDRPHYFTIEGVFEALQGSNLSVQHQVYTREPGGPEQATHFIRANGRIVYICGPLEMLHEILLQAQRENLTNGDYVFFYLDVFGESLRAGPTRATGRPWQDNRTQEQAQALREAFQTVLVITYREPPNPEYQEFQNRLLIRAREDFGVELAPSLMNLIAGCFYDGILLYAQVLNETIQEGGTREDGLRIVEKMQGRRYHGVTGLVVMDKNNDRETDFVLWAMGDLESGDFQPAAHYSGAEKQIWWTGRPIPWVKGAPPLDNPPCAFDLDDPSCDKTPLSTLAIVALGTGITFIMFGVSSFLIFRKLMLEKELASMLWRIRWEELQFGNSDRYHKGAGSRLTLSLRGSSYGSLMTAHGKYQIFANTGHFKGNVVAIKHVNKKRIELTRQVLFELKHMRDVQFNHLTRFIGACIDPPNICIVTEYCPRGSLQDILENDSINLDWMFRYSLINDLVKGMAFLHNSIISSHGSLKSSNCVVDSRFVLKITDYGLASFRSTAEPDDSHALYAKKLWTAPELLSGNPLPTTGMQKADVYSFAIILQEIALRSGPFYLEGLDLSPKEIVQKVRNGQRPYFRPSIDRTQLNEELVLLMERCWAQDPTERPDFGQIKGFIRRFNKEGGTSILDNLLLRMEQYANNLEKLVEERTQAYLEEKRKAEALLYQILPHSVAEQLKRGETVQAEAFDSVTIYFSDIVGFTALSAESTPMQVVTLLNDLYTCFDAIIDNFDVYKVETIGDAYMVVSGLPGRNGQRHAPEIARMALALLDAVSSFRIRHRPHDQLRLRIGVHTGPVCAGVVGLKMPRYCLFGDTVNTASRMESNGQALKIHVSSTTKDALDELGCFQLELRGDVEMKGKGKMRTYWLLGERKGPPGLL
# T5: human NPRA (hNPRA) (human, UniProt P16066 33-1061)
# T5 sequence (looked up): T1 sequence (looked up)
# B1: TPP-10361 (antibody, human IgG1, lambda)
# heavy: not shown
# light: QSVLTQPPSVSGAPGQRVTISCTGSSSNIGAGYDVHWYQQLPGTAPKLLIYGSGSGSGSGSGSPDGGSGGSLRRSSCFGGRMDRIGAQSGLGCNSFRYGSYGSGGSGSGSGNRPSGVPDRFSGSKSGTSASLAITGLQAEDEADYYCQSYDSSLSGVVFGGGTKLTVLGQPKAAPSVTLFPPSSEELQANKATLVCLISDFYPGAVTVAWKADSSPVKAGVETTTPSKQSNNKYAASSYLSLTPEQWKSHRSYSCQVTHEGSTVEKTVAPTECS
# B2: TPP-10355 (antibody, human IgG1, lambda)
# heavy: not shown
# light: QSVLTQPPSVSGAPGQRVTISCTGSSSNIGAGYDVHWYQQLPGTAPKLLIYGNSNRPSGVPDRFSGSKSGTSASLAITGLQAEDEADYYCAAWNPNPNPNPNPNGGSGGSLRRSSCFGGRMDRIGAQSGLGCNSFRYGSNPNPNPNPNPNVFGSGTKVTVLGQPKAAPSVTLFPPSSEELQANKATLVCLISDFYPGAVTVAWKADSSPVKAGVETTTPSKQSNNKYAASSYLSLTPEQWKSHRSYSCQVTHEGSTVEKTVAPTECS
# B3: TPP-11156 (antibody, human IgG1, lambda)
# heavy: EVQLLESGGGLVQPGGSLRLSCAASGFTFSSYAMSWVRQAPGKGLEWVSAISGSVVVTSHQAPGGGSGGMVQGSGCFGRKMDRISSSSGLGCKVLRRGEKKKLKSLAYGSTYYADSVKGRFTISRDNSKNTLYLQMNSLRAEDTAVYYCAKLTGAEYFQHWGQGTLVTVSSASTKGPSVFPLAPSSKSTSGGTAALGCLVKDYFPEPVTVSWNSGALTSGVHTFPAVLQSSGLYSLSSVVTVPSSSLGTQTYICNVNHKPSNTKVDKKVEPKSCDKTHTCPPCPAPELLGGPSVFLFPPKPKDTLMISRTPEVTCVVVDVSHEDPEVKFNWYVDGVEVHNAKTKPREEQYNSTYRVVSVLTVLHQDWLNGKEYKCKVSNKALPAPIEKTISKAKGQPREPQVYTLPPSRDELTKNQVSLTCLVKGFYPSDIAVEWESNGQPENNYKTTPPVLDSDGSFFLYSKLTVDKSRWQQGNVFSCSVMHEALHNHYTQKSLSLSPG
# light: QSVLTQPPSVSGAPGQRVTISCTGSSSNIGAGYDVHWYQQLPGTAPKLLIYGNSNRPSGVPDRFSGSKSGTSASLAITGLQAEDEADYYCQSYDSSLSGVVFGGGTKLTVLGQPKAAPSVTLFPPSSEELQANKATLVCLISDFYPGAVTVAWKADSSPVKAGVETTTPSKQSNNKYAASSYLSLTPEQWKSHRSYSCQVTHEGSTVEKTVAPTECS
# B4: TPP-10274 (antibody)
# heavy: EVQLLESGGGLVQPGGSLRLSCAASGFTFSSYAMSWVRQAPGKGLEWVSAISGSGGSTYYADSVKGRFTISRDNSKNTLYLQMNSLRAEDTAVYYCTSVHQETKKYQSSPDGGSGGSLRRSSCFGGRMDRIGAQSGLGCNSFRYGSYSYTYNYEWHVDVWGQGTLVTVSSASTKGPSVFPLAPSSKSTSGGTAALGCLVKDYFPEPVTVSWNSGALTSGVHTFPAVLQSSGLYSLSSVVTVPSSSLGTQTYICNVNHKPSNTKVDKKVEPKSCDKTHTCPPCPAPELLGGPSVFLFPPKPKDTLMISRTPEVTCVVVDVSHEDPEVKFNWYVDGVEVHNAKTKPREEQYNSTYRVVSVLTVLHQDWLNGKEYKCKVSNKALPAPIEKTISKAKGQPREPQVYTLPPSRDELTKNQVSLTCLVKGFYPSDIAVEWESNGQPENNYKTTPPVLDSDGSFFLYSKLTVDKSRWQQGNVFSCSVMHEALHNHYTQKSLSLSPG
# light: B3 light
# B5: TPP-9465 (antibody)
# heavy: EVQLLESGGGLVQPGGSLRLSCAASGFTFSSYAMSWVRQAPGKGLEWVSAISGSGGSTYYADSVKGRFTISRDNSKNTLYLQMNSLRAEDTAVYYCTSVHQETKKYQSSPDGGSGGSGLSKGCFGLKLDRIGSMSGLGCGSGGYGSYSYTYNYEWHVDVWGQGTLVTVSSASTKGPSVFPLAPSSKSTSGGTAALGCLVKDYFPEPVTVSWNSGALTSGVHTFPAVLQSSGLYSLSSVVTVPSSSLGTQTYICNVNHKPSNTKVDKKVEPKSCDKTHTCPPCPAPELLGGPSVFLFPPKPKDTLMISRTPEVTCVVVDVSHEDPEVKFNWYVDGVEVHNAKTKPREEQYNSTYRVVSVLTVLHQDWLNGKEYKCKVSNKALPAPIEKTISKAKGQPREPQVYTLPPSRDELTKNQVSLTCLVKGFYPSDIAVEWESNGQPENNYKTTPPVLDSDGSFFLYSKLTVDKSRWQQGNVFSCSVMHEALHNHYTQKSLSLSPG
# light: B3 light
# B6: TPP-10290 (antibody)
# heavy: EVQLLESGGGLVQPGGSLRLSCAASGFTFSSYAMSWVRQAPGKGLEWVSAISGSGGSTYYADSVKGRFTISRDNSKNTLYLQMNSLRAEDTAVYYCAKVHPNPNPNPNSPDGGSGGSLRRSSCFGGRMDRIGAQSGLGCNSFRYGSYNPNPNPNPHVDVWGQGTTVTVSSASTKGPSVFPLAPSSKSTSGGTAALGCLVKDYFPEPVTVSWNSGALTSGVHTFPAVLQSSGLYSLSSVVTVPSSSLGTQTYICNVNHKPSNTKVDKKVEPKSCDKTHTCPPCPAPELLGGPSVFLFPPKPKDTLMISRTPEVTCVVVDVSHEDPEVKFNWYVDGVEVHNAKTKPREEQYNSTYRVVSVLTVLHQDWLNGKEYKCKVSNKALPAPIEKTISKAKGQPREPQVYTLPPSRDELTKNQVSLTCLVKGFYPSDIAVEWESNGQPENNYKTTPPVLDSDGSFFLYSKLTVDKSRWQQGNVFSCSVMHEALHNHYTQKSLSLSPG
# light: B3 light
# B7: TPP-13054 (antibody, human IgG1, lambda)
# heavy: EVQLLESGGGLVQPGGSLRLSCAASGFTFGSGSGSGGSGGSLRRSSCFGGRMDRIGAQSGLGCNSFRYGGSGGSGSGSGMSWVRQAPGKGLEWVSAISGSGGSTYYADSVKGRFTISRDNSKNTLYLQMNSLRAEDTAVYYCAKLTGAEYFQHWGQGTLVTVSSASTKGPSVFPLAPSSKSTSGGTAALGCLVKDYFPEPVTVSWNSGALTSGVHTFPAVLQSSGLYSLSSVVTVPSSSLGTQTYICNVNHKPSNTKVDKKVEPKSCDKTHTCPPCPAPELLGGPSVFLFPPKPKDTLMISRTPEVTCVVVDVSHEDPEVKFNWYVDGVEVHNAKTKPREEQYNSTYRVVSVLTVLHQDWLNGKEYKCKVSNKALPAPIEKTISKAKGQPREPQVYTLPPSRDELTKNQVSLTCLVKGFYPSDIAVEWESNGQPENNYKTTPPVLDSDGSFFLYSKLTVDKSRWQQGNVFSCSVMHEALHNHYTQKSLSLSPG
# light: B3 light
# B8: TPP-12377 (antibody)
# heavy: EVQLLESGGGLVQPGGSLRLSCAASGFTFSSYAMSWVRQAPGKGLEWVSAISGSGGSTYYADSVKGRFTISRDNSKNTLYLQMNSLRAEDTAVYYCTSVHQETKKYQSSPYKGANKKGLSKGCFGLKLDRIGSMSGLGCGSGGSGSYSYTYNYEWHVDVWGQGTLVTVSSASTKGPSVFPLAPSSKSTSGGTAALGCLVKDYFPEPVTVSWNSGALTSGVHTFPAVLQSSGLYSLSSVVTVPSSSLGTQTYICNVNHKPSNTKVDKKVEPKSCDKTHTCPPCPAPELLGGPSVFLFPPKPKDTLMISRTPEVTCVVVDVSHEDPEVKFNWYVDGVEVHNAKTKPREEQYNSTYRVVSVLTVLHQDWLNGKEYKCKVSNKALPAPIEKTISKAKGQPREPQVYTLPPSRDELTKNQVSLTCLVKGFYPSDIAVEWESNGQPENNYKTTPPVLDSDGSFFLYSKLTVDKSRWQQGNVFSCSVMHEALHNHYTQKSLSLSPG
# light: B3 light
# B9: TPP-13230 (antibody)
# heavy: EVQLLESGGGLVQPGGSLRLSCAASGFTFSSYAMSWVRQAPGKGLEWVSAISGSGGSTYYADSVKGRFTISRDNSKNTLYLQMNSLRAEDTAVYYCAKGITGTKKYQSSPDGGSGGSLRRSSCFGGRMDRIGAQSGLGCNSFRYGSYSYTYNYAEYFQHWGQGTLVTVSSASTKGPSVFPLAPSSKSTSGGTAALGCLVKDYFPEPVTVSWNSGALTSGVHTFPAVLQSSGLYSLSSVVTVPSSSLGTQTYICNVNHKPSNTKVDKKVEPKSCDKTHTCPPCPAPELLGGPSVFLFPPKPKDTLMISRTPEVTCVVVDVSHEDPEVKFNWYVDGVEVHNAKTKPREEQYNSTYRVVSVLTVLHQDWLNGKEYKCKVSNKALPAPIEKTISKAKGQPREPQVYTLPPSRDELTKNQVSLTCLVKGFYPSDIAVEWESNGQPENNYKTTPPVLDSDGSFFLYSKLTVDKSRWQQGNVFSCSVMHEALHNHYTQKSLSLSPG
# light: B3 light
# B10: TPP-5661 (antibody)
# heavy: not shown
# light: B3 light
# B11: TPP-10992 (antibody, human IgG4 S228P, lambda)
# heavy: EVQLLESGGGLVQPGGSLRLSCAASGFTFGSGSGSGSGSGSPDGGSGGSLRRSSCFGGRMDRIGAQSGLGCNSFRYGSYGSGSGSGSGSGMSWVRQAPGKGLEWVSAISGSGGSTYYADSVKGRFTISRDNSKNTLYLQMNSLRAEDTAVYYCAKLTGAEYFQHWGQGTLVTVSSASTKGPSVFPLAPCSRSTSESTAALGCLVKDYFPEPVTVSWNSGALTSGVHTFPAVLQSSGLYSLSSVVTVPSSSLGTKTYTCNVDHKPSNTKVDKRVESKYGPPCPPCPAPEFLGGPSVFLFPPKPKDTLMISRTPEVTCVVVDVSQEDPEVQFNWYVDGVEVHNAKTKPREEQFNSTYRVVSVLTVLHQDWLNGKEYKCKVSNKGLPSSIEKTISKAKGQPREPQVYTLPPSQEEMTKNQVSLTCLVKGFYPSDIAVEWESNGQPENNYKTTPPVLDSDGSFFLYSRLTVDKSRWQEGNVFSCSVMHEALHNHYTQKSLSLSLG
# light: B3 light
# B12: TPP-5661 (antibody)
# heavy: not shown
# light: B3 light
# B13: TPP-9902 (antibody)
# heavy: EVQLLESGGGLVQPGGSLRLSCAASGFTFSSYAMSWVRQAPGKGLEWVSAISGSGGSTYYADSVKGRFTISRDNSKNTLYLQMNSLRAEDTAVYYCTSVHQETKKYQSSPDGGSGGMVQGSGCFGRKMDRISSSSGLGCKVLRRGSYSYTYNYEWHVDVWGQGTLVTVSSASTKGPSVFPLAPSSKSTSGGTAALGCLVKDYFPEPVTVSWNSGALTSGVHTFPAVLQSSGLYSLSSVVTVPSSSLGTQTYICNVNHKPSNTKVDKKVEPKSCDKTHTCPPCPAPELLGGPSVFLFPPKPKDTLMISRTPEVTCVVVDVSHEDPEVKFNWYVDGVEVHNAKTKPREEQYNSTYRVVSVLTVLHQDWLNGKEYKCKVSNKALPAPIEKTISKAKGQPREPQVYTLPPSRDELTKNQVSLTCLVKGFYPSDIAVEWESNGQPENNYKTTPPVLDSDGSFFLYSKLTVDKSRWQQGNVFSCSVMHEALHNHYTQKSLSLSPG
# light: B3 light
# B14: TPP-12897 (antibody)
# heavy: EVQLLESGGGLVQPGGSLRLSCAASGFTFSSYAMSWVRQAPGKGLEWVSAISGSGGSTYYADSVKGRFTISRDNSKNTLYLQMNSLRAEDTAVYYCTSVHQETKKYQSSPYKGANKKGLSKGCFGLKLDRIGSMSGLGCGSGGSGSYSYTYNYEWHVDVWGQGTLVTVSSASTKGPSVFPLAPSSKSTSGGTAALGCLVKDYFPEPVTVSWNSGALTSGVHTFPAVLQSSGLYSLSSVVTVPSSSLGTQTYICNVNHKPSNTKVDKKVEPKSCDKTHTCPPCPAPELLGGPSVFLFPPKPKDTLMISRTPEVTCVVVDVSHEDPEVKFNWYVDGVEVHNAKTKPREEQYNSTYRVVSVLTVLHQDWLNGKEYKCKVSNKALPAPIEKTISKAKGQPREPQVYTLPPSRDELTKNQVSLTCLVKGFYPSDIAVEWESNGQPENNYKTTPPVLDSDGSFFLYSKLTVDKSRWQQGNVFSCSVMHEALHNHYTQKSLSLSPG
# light: B3 light with S98D
# What was measured:
# Experiment in all cases: cell-based or functional assay
# [1] = molecular target: T1, human NPRA
# [2] = molecular target: T2, rat ANP receptor (NPR-A)
# [3] = molecular target: T3, human NPRA; remark: listed apart in the source
# [4] = molecular target: T4, rat CNP receptor (NPR-B)
# [5] = molecular target: T5, human NPRA (hNPRA)
binder,measurement,setting,value
B1,activity rcs,[1],20%
same,average rel logEC50,[1],-0.1 log vs TPP-5661
same,rel. activity rcs,[1],-0.1 log vs TPP-5661
same,rel. logEC50 pcs 5,[1],-0.1 log vs TPP-5661
B2,activity rcs,[1],94%
same,average rel logEC50,[1],-0.2 log vs TPP-5661
same,rel. activity rcs,[1],0.1 log vs TPP-5661
same,rel. logEC50 pcs 2,[1],-0.6 log vs TPP-5661
same,rel. logEC50 pcs 3,[1],0.2 log vs TPP-5661
same,rel. logEC50 pcs 4,[1],-0.3 log vs TPP-5661
B3,"EC50, fluorescence signal of rat NPR-A cGMP reporter CHO cell line (GCaMP6/CNGA2)",[2],1200 nM
same,EC50 on rNPRA reporter cells,[2],> 1000 nM
B4,activity rcs,[3],71%
same,average rel logEC50,[3],-0.1 log vs TPP-5661
same,rel. logEC50 pcs 2,[3],-0.3 log vs TPP-5661
same,rel. logEC50 pcs 3,[3],-0.2 log vs TPP-5661
same,rel. logEC50 pcs 7,[3],0 log vs TPP-5661
B5,"EC50, luminescence signal of rat NPR-B cGMP reporter cell line",[4],5.2 nM
B6,activity rcs,[1],84%
same,average rel logEC50,[1],-0.5 log vs TPP-5661
same,rel. logEC50 pcs 2,[1],-0.8 log vs TPP-5661
same,rel. logEC50 pcs 3,[1],-0.1 log vs TPP-5661
B7,average rel logEC50,[3],-0.8 log vs TPP-5661
same,rel. logEC50* pcs,[3],-0.7 log vs TPP-5661 and -0.8 log vs TPP-5661
B8,"EC50, luminescence signal of rat NPR-B cGMP reporter cell line",[4],4.1 nM
B9,average rel logEC50,[1],-0.3 log vs TPP-5661
same,rel. logEC50 pcs 9,[1],-0.3 log vs TPP-5661
B10,"EC50, fluorescence signal of rat NPR-A cGMP reporter CHO cell line (GCaMP6/CNGA2)",[2],17 nM
same,"log EC50, cGMP quantification assay, isolated compound sample (ics) on stable hNPRA-CHO k1 cells",[5],-8.8 log EC50
same,"log EC50, cGMP quantification assay, purified compound sample (pcs) on stable hNPRA-CHO k1 cells",[5],-9.2 log EC50
same,"log EC50, cGMP quantification assay, purified compound sample (pcs) on transient hNPRA-HEK293 cells",[5],-9 log EC50
B11,"EC50, fluorescence signal of rat NPR-A cGMP reporter CHO cell line (GCaMP6/CNGA2)",[2],180 nM
B12,activity rcs,[1],36%
same,average rel logEC50,[1],0 log vs TPP-5661
same,rel. activity rcs,[1],0 log vs TPP-5661
same,rel. logEC50* pcs,[1],0 log vs TPP-5661
same,rel. logEC50 ics,[1],0 log vs TPP-5661
same,rel. logEC50 pcs 1,[1],0 log vs TPP-5661
same,rel. logEC50 pcs 2,[1],0 log vs TPP-5661
same,rel. logEC50 pcs 3,[1],0 log vs TPP-5661
same,rel. logEC50 pcs 4,[1],0 log vs TPP-5661
same,rel. logEC50 pcs 5,[1],0 log vs TPP-5661
same,rel. logEC50 pcs 6,[1],0 log vs TPP-5661
same,rel. logEC50 pcs 7,[1],0 log vs TPP-5661
same,rel. logEC50 pcs 8,[1],0 log vs TPP-5661
same,rel. logEC50 pcs 9,[1],0 log vs TPP-5661
B13,"EC50, fluorescence signal of rat NPR-A cGMP reporter CHO cell line (GCaMP6/CNGA2)",[2],2300 nM
same,EC50 on rNPRA reporter cells,[2],> 1000 nM
B14,"EC50, luminescence signal of rat NPR-B cGMP reporter cell line",[4],10 nM

# From patent US20210147504A1 (Bayer, published 2021)
